Assay: soluble on expression in E. coli; label from the status in PepcDB or PDB records

Which “soluble on expression in E. coli” value does the source give for “MGHHHHHHSHMFPCQHCERKFTTKQGLERHMHIHISTVNHAFKCKYCGKAFGTQINRRRHERRHEAGLKRKPSQ” here?
Its value is “soluble”.

Which “soluble on expression in E. coli” value does the source give for “MCASFAKFAERWNPLPETLLSWSKNNCDKVQPRPRDMSCEDVVQFVADCNFSGGGPGPGKLADTTNRQVADTFYQRTYENSPRVLPKYIYYNENTARDYGQFGNWYYPNYYPPTYLGFFDGRPASMAQLENDYKFAKGGHYPYNRADNIVNIGLQQTYLPTCLHDLFYCVRASNGQRPQAYLNYKEYRRDRDQAAEQMAQRDQDIKTLRRHRTRHHEDDE” here?
The value was “not soluble”.

For “QTEVQKLTNAKAIITYLAEKFPLCFVLEGEAKPLKIGLFQDLAEALQDDERVSKTQLRQALRQYTSNWRYLYGCREGAVRVDLQGNPAGVLDAEHVAHAAQQLAEAKARFAEKRKQKLQLKKHNKKSIRVNLRIKTLKKRV”, which “soluble on expression in E. coli” value is on record?
The value was “not soluble”.

Which “soluble on expression in E. coli” value does the source give for “MIISTDLQLLISPMQWDQVASEIAQQLSAVGYNVTDIRAEVIDLTCEPDNMLVNQWQQEHGTIPTSEQLHRVVITGEFDGELRKATECVVRQLPEGSYWYGTSLVGEIEPSVTAACAWQADV” here?
The value was “not soluble”.

With “MEKRITTPLTDEVVKSLRAGDKVLITGYIYTARDAAHKRMVEAIQRGEKPPIDLKGQIIYYVGPTPPKPGQVIGSAGPTTAIRMDKYVEPLLKLGLKGMIGKGYRSPQVKELLKKYKAVYFAAVGGVATLLQKHIKSSELIAYEDLGTEAIRRLYVEDFPVIVANDAFGGDVFEEGRKKYAKIDV” as the sequence, how does the “soluble on expression in E. coli” value read?
The value was “soluble”.

Which “soluble on expression in E. coli” value does the source give for “MDGYQLTFSNNKRSDKSIVSEKLQRDCDPPITQKYFWSSGGHTFHFRAAAAEKNVTPFSTKMQGKYIKKKAM” here?
The value was “not soluble”.

With “MPQLSPWQHYQKDLTRDGFSHDPAQEIAVKALQRVYEDLTAAEEPNSLFGKLFTSFGLTSAPAPTKGLYLWGGVGRGKTYLMDTFFDTLPGNQKLRAHFHRFMHQLHLDLDALKGTRDPLLVIAKQMAAKYRVICFDEFFVSDITDAMLLGTLFQALFKEGVVLVATSNIIPDDLYKNGLQRARFLPAIALINQHCEVLNVDSGIDYRLRTLEQAEIYHHPLDEQADTNLLRYFGQLAPEAEISTEAIEIEGRAISIRQQAQGVLLADFRALCDGPRSQRDYMELARIYHTVLVSGIEQMGAFLTGDDIARRFLAMVDEFYERNVKLIVSAQVPLEDIYADGLLSFEFRRCRSRLIEMQSHDYLKSEHLPAAALEHHHHHH” as the sequence, how does the “soluble on expression in E. coli” value read?
The value was “soluble”.

For “MLSFTSRLKKDLFIKAQSLVPQHQLSRVVGKVAESENILIKAAVIQAFKTKYGIDLSIAEQADALKYKSFNEFFTRALKEGVRVVDSATGSIVSPADGAISQLGTIHDGEVFQAKGQSFSVEKLIGDPQLAQPFKQGQFATVYLSPRDYHRVHMPFTGTLTETLYIPGELFSVNQVTAENIPGLFARNERMVCLFDTELGRMAVVLVGAMIVAGIETVVTGKVKPTGRLELNHHDVTLQKGDELGRFYLGSTAIILFEKDKMVWDQQFKANSIVVMGEKLGQSTNPLEHHHHHH”, which “soluble on expression in E. coli” value is on record?
The value was “not soluble”.

With “MDERFISFVCLLFTMEFQKYRTMHFPRDVYIGHDVLNRVLDVVDQNSRTRDVIIVTGNTTYELAGKKIVEILASSPYEVHLSFAGEANYENLKKIEEETNDVNAGIIIGVGGGTKIDLAKKLAYDKNLPFISIPTSPSHDGIASPRASLRRNGISYSEEGAMPIGVIADTSVMIKAPYRYLAAGAADVISNISAVKDWKLAHRLRGEEFSSSAAAMSEYSAQEVISQVGEIRKYDESSVWLVTKNILASGTAMAIAGNSRPGSGSEHLFAHALEAAGVNNMLHGEMCAMGTIVSLYLHDDNWQKIRDVFESLGVSVKARDYGLKEEVVIEALRRAHAIRPERYTILGESDMSYDAAVKALELTGII” as the sequence, how does the “soluble on expression in E. coli” value read?
The value was “not soluble”.

Which “soluble on expression in E. coli” value does the source give for “AHHHHHHGSKKRLPASRVYIKDILEGYFVKSEGDFEPNYLITKDARKIYRAKIVGTVIREPLIAEDETYGKFQIDDGTGVIWVLGFRDDTKFAKLVKKGDLVQVIGKIAEWRDDKQILVEGVAKVHPNMWILHRYETLKEKIEHARKAKIAFEIYNTYGITAKSKVIAKNKGVPEELLETIDELYGIIMEEKAMEEPVEELIEEEITEEGKEENEILEKVKQEILEILRSKKIAVSRKYILKKLGEKYDEETIEDAIAELLADGEIYEPETGYYKLL” here?
Its value is “not soluble”.

For “MFPFGHKGQKIKGTMVVMQKNVLDINSITSVDGIVGTGLDFLGSALDTVTFLASSISIQLISATKADGGKGKVGKATNLRGKITLPTIGAKEEAYDAQFDWDSDFGIPGAFYIKNYMQNEFYLKSLILEDIPNHGTIHFICNSWVYNSKHYKTDRIFFANNTYLPSETPAPLVKYREEELKNVRGDGTGERKEWDRIYDYDVYNDLGDPDKGEKYARPVLGGSALPYPRRGRTGRGKTRKDPNSEKPGDFVYLPRDEAFGHLKSSDFLAYGIKSVAQDVLPVLTDAFDGNLLSLDFDNFAEVRKLYEGGVTLPTNFLSNITPIPIIKELFRTDGEQFLKYPPPKVMQVDKSAWMTDEEFARETIAGLNPNVIKIIEEFPLSSKLDTQAYGDHTCIITKEHLEPNLGGLTVEQAIQNKKLFILDHHDYLIPYLRKINANTTKTYATRTIFFLKNDGTLTPLAIELSKPHPQGEEYGPVSEVYVPSSEGVEAYIWLLAKAYVVVNDACYHQIISHWLNTHAVVEPFVIATNRHLSVVHPIYKLLFPHYRDTMNINSLARKSLVNADGIIEKTFLWGRYSLEMSAVIYKDWVFTDQALPNDLVKRGVAVKDPSAPHGVRLLIEDYPYASDGLEIWDAIKSWVEEYVSFYYKSDEELQKDPELQAWWKELVEVGHGDLKDKPWWQKMQTREELVEASATLIWIASALHAAVNFGQYPYGGLILNRPTISRRFMPEKGSPEYDALAKNPEKEFLKTITGKKETLIDLTIIEILSRHASDEFYLGQRDGGDYWTSDAGPLEAFKRFGKNLEEIEKKLIEKNNDETLRNRYGPAKMPYTLLYPSSEEGLTFRGIPNSISI”, which “soluble on expression in E. coli” value is on record?
Its value is “soluble”.

Which “soluble on expression in E. coli” value does the source give for “MKVLFLTANEFEDVELIYPYHRLKEEGHEVYIASFERGTITGKHGYSVKVDLTFDKVNPEEFDALVLPGGRAPERVRLNEKAVSIARKMFSEGKPVASICHGPQILISAGVLRGRKGTSYPGIKDDMINAGVEWVDAEVVVDGNWVSSRVPADLYAWMREFVKLLK” here?
Its value is “soluble”.

With “AIATNDANHLESNCVEEQVQQSLREPWWWLRWRDTPRQQLRGTLFVYTATCPDEKIQRERGFAADHEQVYAFVSFGPEVETDPREHVVEIVKALTSMRSFVETLERTLFEDEDSEPAARTYTHDEPCSVAHHSADADQQFLVETVRHDRIAAAYSSMSQEMHTAPEGARPDCFSKGTSQDHETDTSQPILRKKDETDTWVVALGPDHLVASHTLAACGCALFLGLEWDFRACRSRSDDDFRIMELFQEDLKSRVTWLAPRLGLQHKHACSAQCKDQARNRDSSWDVLLREWLPQAIPGGPRHPQAM” as the sequence, how does the “soluble on expression in E. coli” value read?
The value was “soluble”.

With “MQQVFKKPVSLKDVQTHFCPGCHHGTFHRLVAEAMDEFGVQKKTIGVASVGCSVFLYGYFDIDVVEAPHGRAPAVATGVKRARPDAFVFTYQGDGDLAAIGTSEIIHAANRGEDITVIFVNNTTYGMTGGQMAPTTLVGQRTSTSPYGRKNEKDGSPIRMAELLAQLEGVAFSARVAVNNPKNLMDAKRQIKKAFRYQAEGKGFSFIEALSSCPTNWGMDALAANERVGTEMCA” as the sequence, how does the “soluble on expression in E. coli” value read?
The value was “not soluble”.

Which “soluble on expression in E. coli” value does the source give for “MGNNQPGGMYKRDRPYDSEKSGSHSRSRGGIPSSSPSNEDECPVQMKIAKGDDKSKFPVVFKWNINNATPRQVYICGSWDGWNTKIPLVKSTSDFSTIVDLEPGKHEYKFMVDSKWVVDDNQQKTGNNLGGENNVVMIDEADFEVFDALDKDLASSNAGEALRNSHPTKESHDTPNDRELEKLHQFGQETPTRVDFNKAAAPPVLPPHLLQVILNKDTPVQCDPNVLPEPDHVMLNHLYALSIKDGVMVLSATHRYRKKFVTTLLYKPI” here?
Its value is “soluble”.

Which “soluble on expression in E. coli” value does the source give for “LRTITRDDWETCIDLKVARHQAHFVASNLYSLAQSRFLPGFRAVGIHHGGRMVGFALYGPDADDGHYWLYRLMIDRRYQGKGHGRAALQRIIASVRRTRRRSDRLMVAYAVDNDVARQLYRDAGFVEQGLAPWGETMACLMLPEPSHRSGKVAGAPGGRAAHGVPA” here?
Its value is “not soluble”.

With “MSLREIHVDTLTDAVAKLCIDACHRLPDNLVESFHKAAEKEVSPLGKSVLMKLIDNDRIARENDVSYCHDTGLAIVFVEVGQDVHIVGGSYEDAIQAGVRKGYAEGYMRKSVVSDPLLRVNSNDNTPAVVHTEIVPGDNIEVTVVPKGGGSENWSTMKFLLPGEGAEGVKKFVLSAIEAAGGAACPPLTVGVGIGGSFDKVTAIAKKAILRDIGVHHKEPHVAKLEAELLDAINKTGIGPQGYGGVNTALWVSVETYACHITALPVAVNIQCHAGRRATAVIEGHHHHHH” as the sequence, how does the “soluble on expression in E. coli” value read?
Its value is “soluble”.

Reference: the DeepSol protein solubility set
